The values below come from patent US6541450B1, “Parathyroid hormone analogues for the treatment of osteoporosis” (National Research Council of Canada, priority 1994, dated 2003).

“Also recorded” adds a separate entry of the source. Where a SMILES comes first, the peptide text is derived from it. Bridges are numbered along the chain shown (N, C = ends). Where no end group is shown, it is not given here. [ ]: non-standard residue; d: D form. Nle = CCCC[C@H](N)C(=O)O

Experiment [1] has as its system anesthetized female Sprague-Dawley rats. Description: Hypotensive effect, tail artery pressure in anaesthetized rats.
Procedure: Female Sprague-Dawley rats (weighing over 290 g) were anaesthetized with intraperitoneally injected sodium pentobarbital (65 mg/kg body weight). Rectal temperature was monitored with a YS1402 thermistor (Yellow Springs Instrument Co., Inc. Yellow Springs, Ohio) and maintained between 36.0 and 38.5° C. throughout the experiment. Ear pinna temperature was also monitored using a YSi banjo thermistor. The tail artery was exposed to cannulated with a Jelco 25-gIV catheter (Johnson and Johnson Medical Inc., Arlington, Tex.) and connected to a Statham pressure transducer, the signals from which were recorded digitally with a Biopac Systems MP100 Monitor (Harvard Instruments, Saint Laurent, QC, Canada). For intravenous injection of PTH or one of its fragments, a femoral vein was also exposed. After surgery, the rat was allowed to stabilize for 8 min after which PTH or one of its fragments (dissolved in acidified saline containing 0.001 N HCl) was injected into the femoral vein or under the skin of the abdomen. Data were collected for 12 min after intravenous injection or for 22 min after subcutaneous injection.
The target of experiment [2] is PTH receptor (rat (ROS 17/2 rat osteosarcoma cell …, UniProt P25961)). Description: cell-based or functional assay.
[3] abbreviates: intravenous, 0.8 nmol/100 g of body weight.

On to `CC[C@H](C)[C@H](NC(=O)[C@H](CCC(=O)O)NC(=O)[C@H](CO)NC(=O)[C@@H](NC(=O)[C@@H](N)CO)C(C)C)C(=O)N[C@@H](CCC(N)=O)C(=O)N[C@@H](CC(C)C)C(=O)N[C@@H](CCSC)C(=O)N[C@@H](Cc1c[nH]cn1)C(=O)N[C@@H](CC(N)=O)C(=O)N[C@@H](CC(C)C)C(=O)NCC(=O)N[C@@H](CCCCN)C(=O)N[C@@H](Cc1c[nH]cn1)C(=O)N[C@@H](CC(C)C)C(=O)N[C@@H](CC(N)=O)C(=O)N[C@@H](CO)C(=O)N[C@@H](CCSC)C(=O)N[C@@H](CCC(=O)O)C(=O)N[C@@H](CCCNC(=N)N)C(=O)N[C@H](C(=O)N[C@H]1CCC(=O)NCCCC[C@@H](C(=O)N[C@@H](CC(C)C)C(=O)N[C@@H](CC(C)C)C(=O)N[C@@H](CCC(N)=O)C(=O)N[C@@H](CC(=O)O)C(N)=O)NC(=O)[C@H](CCCNC(=N)N)NC(=O)[C@H](CC(C)C)NC(=O)[C@H](Cc2c[nH]c3ccccc23)NC1=O)C(C)C` [compound 8, [Leu^27]cyclo(Glu^22Lys^26)-hPTH-(1-30)-NH2] (H-SVSEIQLMHNLGKHLNSMERVEWLRKLLQD-NH2; lactam 22-26), for which the “total blood pressure drop versus other analogues” value in experiment [1] (subcutaneously or intravenously, 0.8 nmol/100 g of body weight) is on record as “not significantly different (p>0.05)”.

Take hPTH-(7-84) [reference compound]: in experiment [1] (intravenous injection), the “hypotensive action, in words” value is “not significantly hypotensive; also recorded: did not significantly affect tail artery pressure”. Besides, in experiment [1] (setting [3]), the “reduction of tail artery pressure” value stood at 3.28±1.0 mm Hg and the “time to maximum drop in tail artery pressure” value turned out to be 9.8 ± 2.0 min.

B1: [Nle^27]cyclo(Glu^22-Lys^26)-hPTH-(1-31)-NH2 (peptide)
peptide: SVSEIQLMHNLGKHLNSMERVEWLRK[Nle]LQDV-NH2
modifications: lactam 22-26; N-terminus assumed
SMILES: CCCC[C@H](NC(=O)[C@@H]1CCCCNC(=O)CC[C@H](NC(=O)[C@@H](NC(=O)[C@H](CCCNC(=N)N)NC(=O)[C@H](CCC(=O)O)NC(=O)[C@H](CCSC)NC(=O)[C@H](CO)NC(=O)[C@H](CC(N)=O)NC(=O)[C@H](CC(C)C)NC(=O)[C@H](Cc2c[nH]cn2)NC(=O)[C@H](CCCCN)NC(=O)CNC(=O)[C@H](CC(C)C)NC(=O)[C@H](CC(N)=O)NC(=O)[C@H](Cc2c[nH]cn2)NC(=O)[C@H](CCSC)NC(=O)[C@H](CC(C)C)NC(=O)[C@H](CCC(N)=O)NC(=O)[C@@H](NC(=O)[C@H](CCC(=O)O)NC(=O)[C@H](CO)NC(=O)[C@@H](NC(=O)[C@@H](N)CO)C(C)C)[C@@H](C)CC)C(C)C)C(=O)N[C@@H](Cc2c[nH]c3ccccc23)C(=O)N[C@@H](CC(C)C)C(=O)N[C@@H](CCCNC(=N)N)C(=O)N1)C(=O)N[C@@H](CC(C)C)C(=O)N[C@@H](CCC(N)=O)C(=O)N[C@@H](CC(=O)O)C(=O)N[C@H](C(N)=O)C(C)C
For the molecule B1, the “Adenylyl Cyclase (EC50)” value in experiment [2] was found to be 9 nM.

B2: cyclo(Glu^22-Lys^26)-hPTH-(1-31)-NH2 (peptide)
peptide: SVSEIQLMHNLGKHLNSMERVEWLRKKLQDV-NH2
modifications: lactam 22-26; N-terminus assumed
SMILES: CC[C@H](C)[C@H](NC(=O)[C@H](CCC(=O)O)NC(=O)[C@H](CO)NC(=O)[C@@H](NC(=O)[C@@H](N)CO)C(C)C)C(=O)N[C@@H](CCC(N)=O)C(=O)N[C@@H](CC(C)C)C(=O)N[C@@H](CCSC)C(=O)N[C@@H](Cc1c[nH]cn1)C(=O)N[C@@H](CC(N)=O)C(=O)N[C@@H](CC(C)C)C(=O)NCC(=O)N[C@@H](CCCCN)C(=O)N[C@@H](Cc1c[nH]cn1)C(=O)N[C@@H](CC(C)C)C(=O)N[C@@H](CC(N)=O)C(=O)N[C@@H](CO)C(=O)N[C@@H](CCSC)C(=O)N[C@@H](CCC(=O)O)C(=O)N[C@@H](CCCNC(=N)N)C(=O)N[C@H](C(=O)N[C@H]1CCC(=O)NCCCC[C@@H](C(=O)N[C@@H](CCCCN)C(=O)N[C@@H](CC(C)C)C(=O)N[C@@H](CCC(N)=O)C(=O)N[C@@H](CC(=O)O)C(=O)N[C@H](C(N)=O)C(C)C)NC(=O)[C@H](CCCNC(=N)N)NC(=O)[C@H](CC(C)C)NC(=O)[C@H](Cc2c[nH]c3ccccc23)NC1=O)C(C)C
For B2, the “Adenylyl Cyclase (EC50)” value in experiment [2] was 17 nM.

B3: [Tyr^27]cyclo(Glu^22-Lys^26)-hPTH-(1-31)-NH2 (peptide)
peptide: SVSEIQLMHNLGKHLNSMERVEWLRKYLQDV-NH2
modifications: lactam 22-26; N-terminus assumed
SMILES: CC[C@H](C)[C@H](NC(=O)[C@H](CCC(=O)O)NC(=O)[C@H](CO)NC(=O)[C@@H](NC(=O)[C@@H](N)CO)C(C)C)C(=O)N[C@@H](CCC(N)=O)C(=O)N[C@@H](CC(C)C)C(=O)N[C@@H](CCSC)C(=O)N[C@@H](Cc1c[nH]cn1)C(=O)N[C@@H](CC(N)=O)C(=O)N[C@@H](CC(C)C)C(=O)NCC(=O)N[C@@H](CCCCN)C(=O)N[C@@H](Cc1c[nH]cn1)C(=O)N[C@@H](CC(C)C)C(=O)N[C@@H](CC(N)=O)C(=O)N[C@@H](CO)C(=O)N[C@@H](CCSC)C(=O)N[C@@H](CCC(=O)O)C(=O)N[C@@H](CCCNC(=N)N)C(=O)N[C@H](C(=O)N[C@H]1CCC(=O)NCCCC[C@@H](C(=O)N[C@@H](Cc2ccc(O)cc2)C(=O)N[C@@H](CC(C)C)C(=O)N[C@@H](CCC(N)=O)C(=O)N[C@@H](CC(=O)O)C(=O)N[C@H](C(N)=O)C(C)C)NC(=O)[C@H](CCCNC(=N)N)NC(=O)[C@H](CC(C)C)NC(=O)[C@H](Cc2c[nH]c3ccccc23)NC1=O)C(C)C
As to B3, the “Adenylyl Cyclase (EC50)” value in experiment [2] turned out to be 9 nM.

B4: α-acetyl-[Leu^27]cyclo(Glu^22-Lys^26)-hPTH-(1-31)-NH2 (peptide)
peptide: Ac-SVSEIQLMHNLGKHLNSMERVEWLRKLLQDV-NH2
modifications: lactam 22-26
SMILES: CC[C@H](C)[C@H](NC(=O)[C@H](CCC(=O)O)NC(=O)[C@H](CO)NC(=O)[C@@H](NC(=O)[C@H](CO)NC(C)=O)C(C)C)C(=O)N[C@@H](CCC(N)=O)C(=O)N[C@@H](CC(C)C)C(=O)N[C@@H](CCSC)C(=O)N[C@@H](Cc1c[nH]cn1)C(=O)N[C@@H](CC(N)=O)C(=O)N[C@@H](CC(C)C)C(=O)NCC(=O)N[C@@H](CCCCN)C(=O)N[C@@H](Cc1c[nH]cn1)C(=O)N[C@@H](CC(C)C)C(=O)N[C@@H](CC(N)=O)C(=O)N[C@@H](CO)C(=O)N[C@@H](CCSC)C(=O)N[C@@H](CCC(=O)O)C(=O)N[C@@H](CCCNC(=N)N)C(=O)N[C@H](C(=O)N[C@H]1CCC(=O)NCCCC[C@@H](C(=O)N[C@@H](CC(C)C)C(=O)N[C@@H](CC(C)C)C(=O)N[C@@H](CCC(N)=O)C(=O)N[C@@H](CC(=O)O)C(=O)N[C@H](C(N)=O)C(C)C)NC(=O)[C@H](CCCNC(=N)N)NC(=O)[C@H](CC(C)C)NC(=O)[C@H](Cc2c[nH]c3ccccc23)NC1=O)C(C)C
For B4, the “Adenylyl Cyclase (EC50)” value in experiment [2] came to 24 nM.

B5: [Nle^8,18, Leu^27]cyclo(Glu^22-Lys^26)-hPTH-(1-31)-NH2 (peptide)
peptide: SVSEIQL[Nle]HNLGKHLNS[Nle]ERVEWLRKLLQDV-NH2
modifications: lactam 22-26; N-terminus assumed
SMILES: CCCC[C@H](NC(=O)[C@H](CO)NC(=O)[C@H](CC(N)=O)NC(=O)[C@H](CC(C)C)NC(=O)[C@H](Cc1c[nH]cn1)NC(=O)[C@H](CCCCN)NC(=O)CNC(=O)[C@H](CC(C)C)NC(=O)[C@H](CC(N)=O)NC(=O)[C@H](Cc1c[nH]cn1)NC(=O)[C@H](CCCC)NC(=O)[C@H](CC(C)C)NC(=O)[C@H](CCC(N)=O)NC(=O)[C@@H](NC(=O)[C@H](CCC(=O)O)NC(=O)[C@H](CO)NC(=O)[C@@H](NC(=O)[C@@H](N)CO)C(C)C)[C@@H](C)CC)C(=O)N[C@@H](CCC(=O)O)C(=O)N[C@@H](CCCNC(=N)N)C(=O)N[C@H](C(=O)N[C@H]1CCC(=O)NCCCC[C@@H](C(=O)N[C@@H](CC(C)C)C(=O)N[C@@H](CC(C)C)C(=O)N[C@@H](CCC(N)=O)C(=O)N[C@@H](CC(=O)O)C(=O)N[C@H](C(N)=O)C(C)C)NC(=O)[C@H](CCCNC(=N)N)NC(=O)[C@H](CC(C)C)NC(=O)[C@H](Cc2c[nH]c3ccccc23)NC1=O)C(C)C
For B5, in experiment [2], the “Adenylyl Cyclase (EC50)” value is 6 nM.

B6: [Ile^27]cyclo(Glu^22-Lys^26)-hPTH-(1-31)-NH2 (peptide)
peptide: SVSEIQLMHNLGKHLNSMERVEWLRKILQDV-NH2
modifications: lactam 22-26; N-terminus assumed
SMILES: CC[C@H](C)[C@H](NC(=O)[C@@H]1CCCCNC(=O)CC[C@H](NC(=O)[C@@H](NC(=O)[C@H](CCCNC(=N)N)NC(=O)[C@H](CCC(=O)O)NC(=O)[C@H](CCSC)NC(=O)[C@H](CO)NC(=O)[C@H](CC(N)=O)NC(=O)[C@H](CC(C)C)NC(=O)[C@H](Cc2c[nH]cn2)NC(=O)[C@H](CCCCN)NC(=O)CNC(=O)[C@H](CC(C)C)NC(=O)[C@H](CC(N)=O)NC(=O)[C@H](Cc2c[nH]cn2)NC(=O)[C@H](CCSC)NC(=O)[C@H](CC(C)C)NC(=O)[C@H](CCC(N)=O)NC(=O)[C@@H](NC(=O)[C@H](CCC(=O)O)NC(=O)[C@H](CO)NC(=O)[C@@H](NC(=O)[C@@H](N)CO)C(C)C)[C@@H](C)CC)C(C)C)C(=O)N[C@@H](Cc2c[nH]c3ccccc23)C(=O)N[C@@H](CC(C)C)C(=O)N[C@@H](CCCNC(=N)N)C(=O)N1)C(=O)N[C@@H](CC(C)C)C(=O)N[C@@H](CCC(N)=O)C(=O)N[C@@H](CC(=O)O)C(=O)N[C@H](C(N)=O)C(C)C
As to B6, the “Adenylyl Cyclase (EC50)” value in experiment [2] turned out to be 9 nM.

B7: [Ala^27]cyclo(Glu^22-Lys^26)-hPTH-(1-31)-NH2 (peptide)
peptide: SVSEIQLMHNLGKHLNSMERVEWLRKALQDV-NH2
modifications: lactam 22-26; N-terminus assumed
SMILES: CC[C@H](C)[C@H](NC(=O)[C@H](CCC(=O)O)NC(=O)[C@H](CO)NC(=O)[C@@H](NC(=O)[C@@H](N)CO)C(C)C)C(=O)N[C@@H](CCC(N)=O)C(=O)N[C@@H](CC(C)C)C(=O)N[C@@H](CCSC)C(=O)N[C@@H](Cc1c[nH]cn1)C(=O)N[C@@H](CC(N)=O)C(=O)N[C@@H](CC(C)C)C(=O)NCC(=O)N[C@@H](CCCCN)C(=O)N[C@@H](Cc1c[nH]cn1)C(=O)N[C@@H](CC(C)C)C(=O)N[C@@H](CC(N)=O)C(=O)N[C@@H](CO)C(=O)N[C@@H](CCSC)C(=O)N[C@@H](CCC(=O)O)C(=O)N[C@@H](CCCNC(=N)N)C(=O)N[C@H](C(=O)N[C@H]1CCC(=O)NCCCC[C@@H](C(=O)N[C@@H](C)C(=O)N[C@@H](CC(C)C)C(=O)N[C@@H](CCC(N)=O)C(=O)N[C@@H](CC(=O)O)C(=O)N[C@H](C(N)=O)C(C)C)NC(=O)[C@H](CCCNC(=N)N)NC(=O)[C@H](CC(C)C)NC(=O)[C@H](Cc2c[nH]c3ccccc23)NC1=O)C(C)C
Take B7: in experiment [2], the “Adenylyl Cyclase (EC50)” value came out at 9 nM.

For the molecule SVSEIQLMHNLGKHLNSMERVEWLRKKLQDV-NH2 [hPTH-(1-31)-NH2], the “Adenylyl Cyclase (EC50)” value in experiment [2] is 20 nM.
